Experimental data published in the supplement of paper PMC9732359.
± gives the uncertainty stated by the source.

Experiment: protein stability index of a GFP-peptide fusion (yeast GPS) (PSI 1-4); higher = more stable; sorted into four equal gates, so the index is relative within each strain
Outline: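 Tiled 17-residue peptides from yeast proteins were fused downstream of GFP on a plasmid that also expresses Cherry, and the pooled library was carried in yeast. Mid-log cultures grown in leucine-free medium were sorted into four equal gates by GFP/Cherry fluorescence ratio. Plasmids from each gate were PCR-amplified and Illumina-sequenced, and reads were assigned to strains by barcodes. Each peptide's protein stability index is the sum, over gates, of the gate's read frequency multiplied by its gate number.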

Sequence	protein stability index (doa10∆)	protein stability index (pdr5∆)	protein stability index (san1∆)	protein stability index (ubr1∆)
QIISGNRVPDGFQDRSL [RPO31]	3.17 ± 0.13	3.13 ± 0.13	3.06 ± 0.08	3.38 ± 0.2
NKLTGKQIVFEIPSETH [RPS7A]	3 ± 0.09	2.95 ± 0.091	2.86 ± 0.068	2.78 ± 0.11
EKKAEYFAKLREYLEEY [RPP0]	3.44 ± 0.092	3.31 ± 0.088	3.05 ± 0.067	3.54 ± 0.099
SMLFKTSQKMTSTVNRL [MCD1]	2.22 ± 0.073	2.77 ± 0.15	2.33 ± 0.14	3.04 ± 0.14
AQNVPMNIIQQQQQQNT [GAL11]	2.48 ± 0.043	2.6 ± 0.042	2.45 ± 0.069	2.46 ± 0.029
LKWIDTASKFGKGRFQT [RPL3]	3.34 ± 0.11	3.06 ± 0.094	3.11 ± 0.071	3.09 ± 0.065
QHQSLSRSSSKNVNIED [ESC2]	2.83 ± 0.18	2.69 ± 0.11	2.32 ± 0.11	3.04 ± 0.084
NIQGITKPAIRRLARRG [HHF1]	3.27 ± 0.1	3.24 ± 0.093	2.89 ± 0.092	3.35 ± 0.066
APLNFNPIIENNVDNKY [SSN2]	2.69 ± 0.052	2.97 ± 0.049	2.79 ± 0.046	2.88 ± 0.046
SRIRVKIEGCISQVSSI [RPB7]	1.6 ± 0.1	1.75 ± 0.083	1.64 ± 0.11	1.76 ± 0.074
LAFKKNEMLLKRVTKVK [MTW1]	1.77 ± 0.065	2.03 ± 0.052	2.31 ± 0.12	2.03 ± 0.035
GQSSVKHEDFVEGISEV [RPT5]	3.7 ± 0.24	–	–	3.41 ± 0.2
VDLWSVGCIFAELIGLQ [SSN3]	3.18 ± 0.097	3.16 ± 0.13	3.35 ± 0.036	3.17 ± 0.12
TVWSANFEYDLSEYDAI [YOR098C/NUP1]	2.86 ± 0.27	3.31 ± 0.19	2.98 ± 0.27	3.06 ± 0.1
CITLDQLAVRAPKGQNT [RPL18A]	–	3.39 ± 0.2	2.94 ± 0.079	3.38 ± 0.095
LDSLMKTTRLLLIIRSL [YJL039C/NUP192]	1.63 ± 0.044	1.39 ± 0.039	1.32 ± 0.077	1.27 ± 0.04
GVWVRYDSRSGTHNMYK [RPL20A]	–	2.3 ± 0.26	3.1 ± 0.29	–
GSKLEDMSKILVDQGFN [RET1]	3.14 ± 0.066	3.2 ± 0.072	3.31 ± 0.034	3.29 ± 0.049
HLLSINYGEKEERKRWA [PCI8]	3.17 ± 0.11	3.13 ± 0.096	3.41 ± 0.18	3.4 ± 0.095
MLKQHLFKYQGHIGAYL [PUP1]	2.17 ± 0.064	2.34 ± 0.063	2.25 ± 0.092	2.25 ± 0.071
PYSKNAVEQLAGCKIDN [YDL088C/ASM4]	2.58 ± 0.089	2.6 ± 0.089	2.41 ± 0.092	2.56 ± 0.047
LGNTVSTQPSFAWSKPS [YGR119C/NUP57]	2.62 ± 0.067	2.84 ± 0.056	2.85 ± 0.077	2.25 ± 0.035
HLSYCSNLTIYPIYELL [GRR1]	2.54 ± 0.071	2.87 ± 0.1	3.17 ± 0.062	3.06 ± 0.074
EINETEFIRCGCLIKNL [RMP1]	2.48 ± 0.11	2.98 ± 0.096	2.82 ± 0.099	2.91 ± 0.055
ASAGSKEGASTNWDDHA [YMR153W/NUP53]	3.26 ± 0.13	3.49 ± 0.14	3.27 ± 0.077	3.42 ± 0.11
SANVELFKRDCNQMENL [YCS4]	3.38 ± 0.1	3.35 ± 0.09	3.4 ± 0.062	3.35 ± 0.074

Sequence	protein stability index (doa10∆)	protein stability index (pdr5∆)	protein stability index (san1∆)	protein stability index (ubr1∆)
KKFIEISDVKIQVAAFI [PRP8]	2.84 ± 0.058	2.54 ± 0.052	2.65 ± 0.048	2.55 ± 0.042
TSTVNRLNTVTRVHQLM [MCD1]	3.22 ± 0.12	1.49 ± 0.06	2.21 ± 0.2	2.57 ± 0.094
FYQQVHKKDRLQYLPLY [SIR4]	1.64 ± 0.063	1.77 ± 0.058	1.75 ± 0.11	1.67 ± 0.048
RFEKAVKHVFGKTIVVK [SMC3]	2.76 ± 0.21	3.58 ± 0.2	–	3.5 ± 0.16
LLPLVVSNISCLTGTVA [ECM29]	1.25 ± 0.041	1.38 ± 0.034	1.38 ± 0.094	1.45 ± 0.037
VTSADSNLKISLVKYPE [SWI1]	2.61 ± 0.067	2.72 ± 0.073	2.52 ± 0.085	2.75 ± 0.05
PLKYAPHLPFSKSENPV [SWI3]	2.81 ± 0.076	2.95 ± 0.078	2.66 ± 0.091	2.93 ± 0.074
TALDAEGAARGTSVYLV [DIS3]	2.24 ± 0.13	1.58 ± 0.082	2.47 ± 0.12	2.28 ± 0.096
AHAIDQMTWRQWLNNAL [POP8]	2.67 ± 0.065	2.6 ± 0.046	2.41 ± 0.055	2.58 ± 0.04
SWYLNTFDGIRMSSEEV [GRR1]	2.73 ± 0.061	2.1 ± 0.059	2.13 ± 0.066	2.27 ± 0.043
RAGQRGYHSRTSINHKI [RPL3]	2.85 ± 0.13	3.23 ± 0.14	3 ± 0.096	3.5 ± 0.12
IDLLLLGQERATDLAGP [PRP8]	2.47 ± 0.047	2.58 ± 0.083	2.34 ± 0.087	2.29 ± 0.05
APGKVELAINLIRFDES [SMC2]	3.12 ± 0.16	3.11 ± 0.11	3.52 ± 0.12	2.83 ± 0.08
ITHTENYNDLIVNYEDL [BRN1]	3.17 ± 0.09	2.94 ± 0.12	2.56 ± 0.14	3.2 ± 0.072
HVNKRKRVSGTSQHSDS [YOR098C/NUP1]	1.93 ± 0.077	2.31 ± 0.11	2.22 ± 0.1	1.64 ± 0.076
EELLDNCIETFVAEKTT [SRB6]	2.43 ± 0.16	–	–	–
KLYDAKRYTSEGTRNRF [YMR129W/POM152]	3.02 ± 0.098	3.15 ± 0.087	3.23 ± 0.058	3.02 ± 0.055
CSDFVKILNLEKPLILA [NUT1]	2.01 ± 0.097	1.39 ± 0.064	1.34 ± 0.17	1.08 ± 0.071
PSQGVHYKVPTDTSTTA [MED6]	2.34 ± 0.043	2.84 ± 0.046	2.37 ± 0.06	2.76 ± 0.037
KTKKEKGPNEEEKKKEH [RPN2]	3.05 ± 0.28	3.32 ± 0.16	3.49 ± 0.081	3.13 ± 0.19
QSSRVVSLSQLLFIVGQ [YCS4]	1.75 ± 0.063	1.33 ± 0.048	1.83 ± 0.11	1.4 ± 0.054
AQSSHIRAIRKVISEIL [RPS1A]	1.55 ± 0.017	1.624 ± 0.015	1.62 ± 0.031	1.748 ± 0.015
FHSTYLMNGVKPFKSFL [FAS1]	2.65 ± 0.12	2.55 ± 0.078	3.33 ± 0.15	2.87 ± 0.068
LEHDVEYRPFSKKVLEC [DIS3]	3.4 ± 0.18	3.6 ± 0.1	3.48 ± 0.07	3.37 ± 0.073
IAAIIGRLNTLVISLAA [IRR1]	2.1 ± 0.035	1.99 ± 0.036	2.31 ± 0.052	1.77 ± 0.03
TGYPDEPPAGVALPPGS [CYT1]	2.84 ± 0.13	2.92 ± 0.11	2.65 ± 0.11	2.95 ± 0.067
